{"source": "paper PMC8880170", "key": {"[1]": {"target": "SARS-CoV-2 nsp15 K290A (SARS-CoV-2)", "experiment": "SEC; […] (20 mM Tris-HCl pH 8, 150 mM NaCl); […]"}, "[2]": {"target": "SARS-CoV-2 nsp15 N164A (SARS-CoV-2)", "experiment": "SEC; […] (20 mM Tris-HCl pH 8, 150 mM NaCl); […]"}}}
{"substance": "SARS-CoV-2 nsp15 K290A (enzyme)", "values": [{"measurement": "stoichiometry N", "setting": "[1]", "result": 6}]}
{"substance": "SARS-CoV-2 nsp15 N164A (enzyme)", "values": [{"measurement": "stoichiometry N", "setting": "[2]", "result": 6}]}
